This note sets out measurements from article PMC9097884 (Science Immunology, 2022).

The target in assay [1] is T1, SARS-CoV-2 S receptor-binding domain (RBD, residues 329-538, Wuhan-Hu-1) (SARS-CoV-2 (Wuhan-Hu-1 strain), UniProt P0DTC2).
T1 construct: also called SARS-CoV-2 S RBD domain; not shown: Strep-tag, C-terminal, kept
The assay can be described thus: ELISA. The settings on record: both partners purified. (In general: ELISA stands for enzyme-linked immunosorbent assay.)

Assay [2] concerns the target SARS-CoV-2 S1 (residues 1-682, Wuhan-Hu-1) (SARS-CoV-2 (Wuhan-Hu-1 strain), UniProt P0DTC2). The experiment in a line: ELISA. The settings on record: both partners purified.

B1: REGN10933 (recombinant human IgG1/kappa) (antibody, V domains shown)
VH: QVQLVESGGGLVKPGGSLRLSCAASGFTFSDYYMSWIRQAPGKGLEWVSYITYSGSTIYYADSVKGRFTISRDNAKSSLYLQMNSLRAEDTAVYYCARDRGTTMVPFDYWGQGTLVTVSS
VL: DIQMTQSPSSLSASVGDRVTITCQASQDITNYLNWYQQKPGKAPKLLIYAASNLETGVPSRFSGSGSGTDFTFTISGLQPEDIATYYCQQYDNLPLTFGGGTKVEIK
notes: source: HEK-293T, transient transfection, purified (Protein A Sepharose)
As for B1, the binding result in assay [1] and in assay [2] was “binds” throughout.

B2: REGN10987 (recombinant human IgG1/kappa) (antibody, V domains shown)
VH: QVQLVESGGGVVQPGRSLRLSCAASGFTFSNYAMYWVRQAPGKGLEWVAVISYDGSNKYYADSVKGRFTISRDNSKNTLYLQMNSLRTEDTAVYYCASGSDYGDYLLVYWGQGTLVTVSS
VL: QSALTQPASVSGSPGQSITISCTGTSSDVGGYNYVSWYQQHPGKAPKLMIYDVSKRPSGVSNRFSGSKSGNTASLTISGLQSEDEADYYCNSLTSISTWVFGGGTKLTVL
For the molecule B2, the binding result in assay [2] is listed as “binds”.

B3: 87G7 human monoclonal antibody (recombinant human IgG1/kappa) (antibody, V domains shown)
VH: EVQLLESGGGLVQPGGSLRLSCVASGFTFSSYVMSWVRQAPGKGLEWVAAISGSGGNTYYADSVKGRFTISRDNSKNTLYLQMNSLRAEDTAVYYCAKEGTYYYGSGSFWGQGTLVTVSS
VL: EIVLTQSPATLSLSPGERATLSCRASQSFHNYLAWYQQKPGRAPRLLIFDASNRATGIPARFSGSGSGTDFTLTISSLEPEDFAVYYCQQRFNWPLTFGGGTKVEIK
notes: also called 87G7 IgG; 87G7 mAb
For the molecule B3, the binding result in assay [1] and in assay [2] was “binds” throughout.
